Numbering of substitutions follows the chain as printed. Names and notes keep the numbering of the source.
B1: ScSLAC (small laccase, SLAC) (Streptomyces coelicolor A3(2); M298L) (protein)
chain: AKGITARTAPAGGEVRHLKMYAEKLADGQMGYGFEKGKASVPGPLIEVNEGDTLHIEFTNTMDVRASLHVHGLDYEISSDGTAMNKSDVEPGGTRTYTWRTHKPGRRDDGTWRPGSAGYWHYHDHVVGTEHGTGGIRNGLYGPVIVRRKGDVLPDATHTIVFNDMTINNRKPHTGPDFEATVGDRVEIVMITHGEYYHTFHMHGHRWADNRTGILTGPDDPSRVIDNKITGPADSFGFQIIAGEGVGAGAWMYHCHVQSHSDMGLVGLFLVKKPDGTIPGYEPHEHGGATAKSGESGEPTGGAAAHEHEH
B2: ScSLAC (small laccase, SLAC) (Streptomyces coelicolor A3(2); M198F/M298F) (protein)
chain: B1 chain with M165F, L265F
B3: ScSLAC (small laccase, SLAC) (Streptomyces coelicolor A3(2)) (protein)
chain: B1 chain with L265M
B4: ScSLAC (small laccase, SLAC) (Streptomyces coelicolor A3(2); M298F) (protein)
chain: B1 chain with L265F

These proteins were tested on CCn1c(=NN=c2sc3cc(S(=O)(=O)O)ccc3n2CC)sc2cc(S(=O)(=O)O)ccc21 (assay: purified protein). Conditions: pH 5.0, 42 °C, 0.1-25 mM substrate.

Protein	Km	kcat
B1	5000 ± 220 µM	9.3 s⁻¹
B2	1100 ± 40 µM	3.9 s⁻¹
B3	7300 ± 260 µM	38.6 s⁻¹
B4	4100 ± 240 µM	3.7 s⁻¹

These proteins were tested on COc1cc(-c2cc(OC)c(O)c(OC)c2)cc(OC)c1O (assay: purified protein). Conditions: pH 8.5, 42 °C, 0.025-2 mM substrate.
Format: biochemical, Streptomyces coelicolor

Protein	Km	kcat	kcat/Km
B2	100 ± 20 µM	5.6 s⁻¹	kcat/Km = 5.6 × 10^4 s^–1 M^–1
B3	300 ± 50 µM	kcat = 11.3 s^–1	kcat/Km = 3.8 × 10^4 s^–1 M^–1
B4	300 ± 50 µM	5.4 s⁻¹	kcat/Km = 1.8 × 10^4 s^–1 M^–1

The proteins below were run on COc1cccc(OC)c1O (assay: purified protein). Conditions: pH 8.0, 42 °C, 0.25-15 mM substrate.
Format: biochemical, Streptomyces coelicolor

Protein	Km	kcat	kcat/Km
B1	1300 ± 90 µM	1.5 s⁻¹	kcat/Km = 1.2 × 10^3 s^–1 M^–1
B2	1100 ± 80 µM	0.8 s⁻¹	kcat/Km = 0.7 × 10^3 s^–1 M^–1
B4	1200 ± 190 µM	0.7 s⁻¹	kcat/Km = 0.6 × 10^3 s^–1 M^–1
